Source: US20220218805A1 (UNIVERSITY OF BRITISH COLUMBIA, published 2022)
Positions count from the first letter of the chain named. Ends that are not written are not given here.

T1: (4,1) cyclo(CGGGGKLDFG) (SEQ ID NO: 19) conjugated to BSA (not fully specified (residue 1); printed as cyclo(CGGGGKLDFG); also: conjugated to BSA (maleimide coupling))
T1 construct: Screening antigen of the ELISA; also called KLDF (4,1); cyclic peptide-BSA
T1 peptide: cyclo(CGGGGKLDFG)

T2: (3,2) cyclo(CGGGKLDFGG) (SEQ ID NO: 16) conjugated to BSA (not fully specified (residue 1); printed as cyclo(CGGGKLDFGG); also: conjugated to BSA (maleimide coupling))
T2 construct: Screening antigen of the ELISA; also called KLDF (3,2); cyclic peptide-BSA
T2 peptide: cyclo(CGGGKLDFGG)

T3: (3,1) cyclo(CGGGKLDFG) (SEQ ID NO: 15) conjugated to BSA (not fully specified (residue 1); printed as cyclo(CGGGKLDFG); also: conjugated to BSA (maleimide coupling))
T3 construct: Screening antigen of the ELISA; also called KLDF (3,1); cyclic peptide-BSA
T3 peptide: cyclo(CGGGKLDFG)

T4: Linear CGGGKLDFGG (SEQ ID NO: 16) conjugated to BSA (also: conjugated to BSA)
T4 construct: Screening antigen of the ELISA; also called corresponding linear peptide (3,2); linear peptide-BSA
T4 peptide: CGGGKLDFGG

T5: Linear CGGGKLDFG (SEQ ID NO: 15) conjugated to BSA (also: conjugated to BSA)
T5 construct: Screening antigen of the ELISA; also called corresponding linear peptide (3,1); linear peptide-BSA
T5 peptide: CGGGKLDFG

T6: Linear CGGGGKLDFG (SEQ ID NO: 19) conjugated to BSA (also: conjugated to BSA)
T6 construct: Screening antigen of the ELISA; also called corresponding linear peptide (4,1); linear peptide-BSA
T6 peptide: CGGGGKLDFG

B1: Ab15 (clone 10D9) (antibody, V domains shown)
VH: QVQLQQSGAELVKPGASVKLSCKASGYTFTSYYMFWVKQRPGQGLEWIGEINPSNGGSNFNEKFKSKATLTVDKSSSTAYMQLSSLTSEDSAVYYCTRGAFWGQGTLVTVSA
VL: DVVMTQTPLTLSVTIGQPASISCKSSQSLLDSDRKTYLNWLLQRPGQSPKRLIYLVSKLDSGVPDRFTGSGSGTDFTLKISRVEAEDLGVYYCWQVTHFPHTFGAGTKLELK
notes: tested as hybridoma supernatant; kappa light chain
B2: Ab29 (clone 12D11) (antibody, V domains shown)
VH: QIQLVQSGPELKKPGETVKISCKASGYTFTNYGMNWVKQAPGKGLKWMGWINTYSGEPTYVDDFKGRFAFSLETSASTAYLQINNLKNEDMATYFCARSPGAYYTLDYWGQGTSVTVSS
VL: DIVMSQSPSSLAVSAGEKVTMSCKSSQSLLNSRTRKNYLAWYQQKPGQSPKLLIYWASTRESGVPDRFTGSGSGTDFTLTISSVQAEDLAVYYCKQSYNLYTFGGGTKLEIK
notes: as for B1
B3: Ab23 (clone 8E11) (antibody, V domains shown)
VH: QVQLQQSGAELVRPGSSVKISCKASGYAFSSYWMNWVKQRPGQGLEWIGQIYPGDGDTNYNGKFKGKATLTADKSSSTAYMQLSSLTSEDSAVYLCASQIYDGYYTFTYWGQGTLVTVSA
VL: B2 VL with E61V, Y101W
notes: kappa light chain; also called 8E11.1
B4: Ab12 (clone 10B10) (antibody, V domains shown)
VH: B2 VH with Y32F, Y54F, S55T, S77T, M91T, A102R, Y103V
VL: B2 VL
notes: tested as hybridoma supernatant; kappa light chain; also called 10B10.1
B5: Ab10 (clone 9D12) (antibody, V domains shown)
VH: B2 VH with S55T, V61T, M91T, A97G, S99G, P100I, G101R, A102D, L106M
VL: B2 VL with S32N
notes: kappa light chain
B6: Ab14 (clone 10D4) (antibody, V domains shown)
VH: DVQLQESGPGLVKPSQSLSLTCTVTGFSITSDYAWNWIRQFPGNKLEWMGFIRYSGNTRFNPSLKGRGSITRDTSKNQFFLQLNSVTTEDTATYYCASTLEDSYWYFDVWGAGTTVTVSS
VL: DVLMTQTPLSLPVSLGDQASISCRSSQSIVHTNGNTYLEWYLQKPGQSPKLLIYKVSNRFSGVPDRFSGSGSGTDFTLKISRVEAEDLGVYYCFQGSHVPLTFGAGTKLELK
notes: as for B1
B7: Ab21 (clone 2C6) (antibody, V domains shown)
VH: EVQLQQSGAELVKPGASVKLSCTASGFNIKDTHMHWVKQRPEQGLEWIGKIDPSNGNTQYDPKFQGKATITADTSSNTAYLQLSSLTSEDTAVYYCATGFAYWGQGTLVTVSA
VL: DIQMTQSPASLSASVGETVTITCRASGNIHNYLAWYQQKQGKSPQLLVYNAKTLADGVPSRFSGSGSGTQYSLKINSLQPEDFGSYYCQHFWYTPWTFGGGTKLEIK
notes: tested as hybridoma supernatant; kappa light chain; also called 2C6.1
B8: Ab13 (clone 10C9) (antibody, V domains shown)
VH: EVQLQQSGTVLARPGASVKMSCKASGYRFTSYWMYWVKQRPGQGLEWIGAIYPGNSDTIYNQRFKGKATLTAVTSASTAYMELSSLANEDSAVYFCTRPYFDSWGQGTTLTVSS
VL: not shown
notes: as for B1
B9: Ab3 (clone 2C7) (antibody, V domains shown)
VH: QVTLKESGPGILKPSQTLSLTCSFSGFSLSTSGMGVGWIRQPSGKGLEWLAHIWWDDDKYYNPSLKNRLTISKDTSRNQVFLKITSVDTADTATYYCVRSIYYYDSSPYYYVMDYWGQGTSVTVSS
VL: DIVMTQSHKFMSTSVGDRVSITCKASQDVSIAVAWYQQKPGQSPKLLIYSASYRNTGVPDRFTGSGSGTDFTFTISSVQAEDLAVYYCQQHYSSPLTFGAGTKLELK
notes: as for B1
B10: Ab11 (clone 9E4) (antibody, V domains shown)
VH: DVQVQESGPGLVKPSQSLSLTCTVTGYSITSDYAWTWIRQFPGNKLEWMGYISYSGSTSYNPSLKSRLSITRDTSKNQFFLQLNSVTTEDTATYYCAAYYRYGLAYFAYWGQGTLVTVSA
VL: not shown
notes: kappa light chain; The clone name 9E4 is also printed for Ab27; also called 9E4.1

These binders were tested against T7, tau oligomers (SynAging) (UniProt P10636-8 1-441, limits assumed) (assay: SPR, oligomer RU / monomer RU (reference: tau monomers)).
T7 construct: also called misfolded oligomeric tau polypeptide
Procedure: (§1) Antibodies were tested for their ability to bind monomeric tau polypeptide as well as misfolded oligomeric tau polypeptide using surface plasmon resonance. Surface plasmon resonance measurements were performed using a Molecular Affinity Screening System (Sierra Sensors, Hamburg, Germany). Tau monomers (Stressmarq, Victoria, BC, Canada) or tau oligomers (SynAging, Vandoeuvre-les-Nancy, France) were immobilized on high amine capacity sensorchips and hybridoma supernatants (50% dilution) were injected over the immobilized surfaces at 10 μl/minute for 4 min followed by a 5 min dissociation phase. Mouse IgG1 was used as a negative control and a pan-tau reactive antibody was used as a positive control. The reverse orientation was used for purified antibodies: the mAbs were immobilized covalently on the surface of sensorchips (8000-12000 RUs) and serial dilutions of tau monomers or oligomers were injected over the surface.

T7 sequence (P10636 other isoform, or with tags, fused parts or gaps limits assumed): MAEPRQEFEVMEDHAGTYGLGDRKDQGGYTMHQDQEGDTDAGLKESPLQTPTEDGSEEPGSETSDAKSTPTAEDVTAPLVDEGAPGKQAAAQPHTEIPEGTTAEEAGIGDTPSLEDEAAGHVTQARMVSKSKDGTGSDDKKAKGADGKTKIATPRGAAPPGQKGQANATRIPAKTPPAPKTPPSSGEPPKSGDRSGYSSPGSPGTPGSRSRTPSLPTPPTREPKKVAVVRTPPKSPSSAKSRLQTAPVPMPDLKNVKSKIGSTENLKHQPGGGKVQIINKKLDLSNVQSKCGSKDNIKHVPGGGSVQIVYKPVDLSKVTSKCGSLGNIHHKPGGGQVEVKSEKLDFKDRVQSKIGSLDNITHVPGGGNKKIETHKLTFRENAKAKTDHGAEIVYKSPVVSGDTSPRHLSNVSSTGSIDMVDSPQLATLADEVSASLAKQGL

| Ratio (O/M) | Binder |
| --- | --- |
| 3.7 | B1 |
| 2.1 | B2 |
| 2.2 | B3 |
| 2.9 | B4 |
| 2.7 | B5 |
| 2.6 | B6 |
| 1.9 | B7 |
| 3.1 | B8 |
| 1.3 | B9 |
| 2.6 | B10 |

Target: T1, (4,1) cyclo(CGGGGKLDFG) (SEQ ID NO: 19) …
Assay: indirect ELISA on other cyclic peptide-BSA conjugates

| binding result | Binder |
| --- | --- |
| no binding | B2 |

Target: T2, (3,2) cyclo(CGGGKLDFGG) (SEQ ID NO: 16) …
Assay: as above

| binding result | Binder |
| --- | --- |
| no binding | B2 |

Each binder was assayed against T8, tau monomers (Stressmarq) (UniProt P10636-8 1-441, limits assumed) (assay: SPR, hybridoma supernatant over immobilized tau monomers).
T8 construct: also called monomeric tau polypeptide
Procedure: as §1

T8 sequence (P10636 other isoform, or with tags, fused parts or gaps limits assumed): as above

| binding response (RU) | Binder |
| --- | --- |
| 3 | B1 |
| 3 | B2 |
| 4.6 | B3 |
| 5 | B4 |
| 5.2 | B5 |
| 6.9 | B6 |
| 3.5 | B7 |
| 4.8 | B8 |
| 201 | B9 |
| 6.5 | B10 |

Target: T3, (3,1) cyclo(CGGGKLDFG) (SEQ ID NO: 15) …
Assay: indirect ELISA, hybridoma supernatant on cyclic peptide-BSA
Procedure: (§2) Tissue culture supernatants from the hybridomas were tested by indirect ELISA on screening antigen (cyclic peptide-BSA and linear peptide-BSA) and were probed for both IgG and IgM antibodies using a Goat anti-IgG/IgM(H&L)-HRP secondary antibody and developed with TMB substrate.

| OD [OD] | Binder |
| --- | --- |
| 1.35 | B2 |
| 1.19 | B3 |
| 1.21 | B7 |

Target: T1, (4,1) cyclo(CGGGGKLDFG) (SEQ ID NO: 19) …
Assay: as above
Procedure: as §2

| OD [OD] | Binder |
| --- | --- |
| 1.79 | B9 |

Target: T2, (3,2) cyclo(CGGGKLDFGG) (SEQ ID NO: 16) …
Assay: as above
Procedure: as §2

| OD [OD] | Binder |
| --- | --- |
| 1.58 | B1 |
| 1.74 | B4 |
| 1.6 | B5 |
| 1.7 | B6 |
| 1.29 | B8 |
| 1.64 | B10 |

Target: T4, Linear CGGGKLDFGG (SEQ ID NO: 16) …
Assay: indirect ELISA, hybridoma supernatant on linear peptide-BSA
Procedure: as §2

| OD [OD] | Binder |
| --- | --- |
| 0.774 | B1 |
| 0.784 | B4 |
| 0.78 | B5 |
| 0.788 | B6 |
| 0.232 | B10 |

Target: T5, Linear CGGGKLDFG (SEQ ID NO: 15) …
Assay: as above
Procedure: as §2

| OD [OD] | Binder |
| --- | --- |
| 1.69 | B3 |

Target: T6, Linear CGGGGKLDFG (SEQ ID NO: 19) …
Assay: as above
Procedure: as §2

| OD [OD] | Binder |
| --- | --- |
| 1.61 | B9 |

Each binder was assayed against T7, tau oligomers (SynAging) (assay: SPR, hybridoma supernatant over immobilized tau oligomers).
Procedure: as §1

| binding response (RU) | Binder |
| --- | --- |
| 10.9 | B1 |
| 6.2 | B2 |
| 10.2 | B3 |
| 14.5 | B4 |
| 14 | B5 |
| 18 | B6 |
| 6.6 | B7 |
| 14.7 | B8 |
| 269 | B9 |
| 17 | B10 |
